{"source": "paper PMC12931925", "molecular_target": "KRAS^G12D (UniProt P01116)"}
{"substance": "RBDCRD-NarX fusions (RAS-binding components of the RAS sensor, RBDCRD wild-type) (from UniProt P0AFA2 379-598; P0AFA2 379-598)", "values": [{"measurement": "increase in relative mCerulean output of the functional RAS sensor compared to 0 ng/well of KRAS^G12D plasmid (HEK293, Figure 2—figure supplement 2b)", "value": 14, "unit": "fold"}]}
